# According to patent WO2008121813A2 (dated 2009):
# T1: human DUBA polypeptide (human, UniProt Q96G74 1-571)
# T1 construct: Used for endogenous DUBA of HEK293 and TLR3/293 cells and for human DUBA in transfected cells (Western blot with the hamster antibodies); also called OTUD5; OTU domain containing 5
# T1 sequence: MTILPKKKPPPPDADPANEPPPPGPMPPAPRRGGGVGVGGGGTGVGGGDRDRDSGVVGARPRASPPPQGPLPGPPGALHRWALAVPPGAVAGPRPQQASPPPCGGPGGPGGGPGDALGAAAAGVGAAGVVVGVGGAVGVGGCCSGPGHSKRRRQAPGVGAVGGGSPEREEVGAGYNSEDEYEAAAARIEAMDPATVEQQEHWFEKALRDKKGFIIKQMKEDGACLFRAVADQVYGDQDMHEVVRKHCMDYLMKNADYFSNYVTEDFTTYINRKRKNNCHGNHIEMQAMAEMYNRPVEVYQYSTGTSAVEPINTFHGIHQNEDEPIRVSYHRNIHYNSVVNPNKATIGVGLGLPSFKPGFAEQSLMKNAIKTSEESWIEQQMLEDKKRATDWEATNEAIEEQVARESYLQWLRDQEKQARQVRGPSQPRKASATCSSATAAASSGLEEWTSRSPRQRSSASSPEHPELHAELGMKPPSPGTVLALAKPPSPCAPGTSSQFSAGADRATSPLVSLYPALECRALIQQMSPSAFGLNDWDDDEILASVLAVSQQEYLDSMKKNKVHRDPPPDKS
# Target: T1, human DUBA polypeptide
# Assay: anti-DUBA immunoprecipitation from TLR3/293 lysates at 0, 60 and 180 minutes, anti-TRAF3 Western blot
binder,measurement,value
"endogenous TRAF3 (enzyme, UniProt Q13114 1-568, looked up, RING finger-type ubiquitin ligase; also called TNF receptor-associated factor (TRAF3)) MESSKKMDSPGALQTNPPLKLHTDRSAGTPVFVPEQGGYKEKFVKTVEDKYKCEKCHLVLCSPKQTECGHRFCESCMAALLSSSSPKCTACQESIVKDKVFKDNCCKREILALQIYCRNESRGCAEQLMLGHLLVHLKNDCHFEELPCVRPDCKEKVLRKDLRDHVEKACKYREATCSHCKSQVPMIALQKHEDTDCPCVVVSCPHKCSVQTLLRSELSAHLSECVNAPSTCSFKRYGCVFQGTNQQIKAHEASSAVQHVNLLKEWSNSLEKKVSLLQNESVEKNKSIQSLHNQICSFEIEIERQKEMLRNNESKILHLQRVIDSQAEKLKELDKEIRPFRQNWEEADSMKSSVESLQNRVTELESVDKSAGQVARNTGLLESQLSRHDQMLSVHDIRLADMDLRFQVLETASYNGVLIWKIRDYKRRKQEAVMGKTLSLYSQPFYTGYFGYKMCARVYLNGDGMGKGTHLSLFFVIMRGEYDALLPWPFKQKVTLMLMDQGSSRRHLGDAFKPDPNSSSFKKPTGEMNIASGCPVFVAQTVLENGTYIKDDTIFIKVIVDTSDLPDP",binding result,binds
